# Data taken from patent publication US20060292151A1, “L-SIGN polymorphisms and methods involving use of same” (priority 2004, published 2006).
# Tested on: HCV pseudovirion entry
# Test: HCV pseudovirion entry into target cells
# Type: cell-based
# Settings: E1/E2-mediated entry of pseudovirions
# Description: The procedure of Bartosch et al. (2003b) was used to generate retroviral particles pseudotyped with HCV envelope glycoproteins (HCV pseudovirus particles; HCVpp). Briefly, in order to generate HCV pseudovirions, 293T cells were cotransfected with HIV-1-based (pLenti6, Invitrogen) or MMLV-based (pFB, Stratagene, La Jolla, Calif.) retroviral vectors and vectors expressing structural genes, including Gag, Pol and envelope glycoproteins (see FIG. 2). In addition, the HIV-1-based vector was cotransfected with a Rev-encoding plasmid to enable transport of genomic RNAs from the nucleus to the cytoplasm.
# Antibodies against E2 as well as HCV+ sera inhibited E1/E2-mediated entry.
molecule,measurement,value
soluble CD81 ECL2 peptide: soluble CD81 ECL2 peptide (peptide) peptide: FVNKDQIAKDVKQFYDQALQQAVVDDDANNAKAVVKTFHETLDCCGSSTLTALTTSVLKNNLCPSGSNIISNLFKEDCHQKIDDLFSGK,inhibition of HCV pseudovirion entry,inhibited HCV pseudovirion entry
